Key:
ADI-76362 = target: T1, ADI-76362; assay: SPR Carterra, yeast anti-ID
T1 construct: anti-CD3 antibody made in CHO cells, captured by anti-human Fc
How it was run: (§1)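 Fitted with a 1:1 binding model after double referencing: Carterra LSA kinetics at 25° C in HBSTE, with anti-idiotype analytes binding anti-CD3 antibodies (100 nM) captured via anti-human Fc on HC30M chip. Dissociation followed 300 s.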

CTL-62223 = target: T2, CTL-62223; assay: SPR Carterra, yeast anti-ID
T2 construct: also called mosunetuzumab
How it was run: as §1

ADI-76360 = target: T3, ADI-76360; assay: SPR Carterra, yeast anti-ID
T3 construct: anti-CD3 antibody made in CHO cells, captured by anti-human Fc
How it was run: as §1

CTL-62240 = target: T4, CTL-62240; assay: SPR Carterra, yeast anti-ID
T4 construct: also called ONO-4685
How it was run: as §1

ADI-70326 = target: T5, ADI-70326; assay: SPR Carterra, yeast anti-ID
T5 construct: anti-CD3 antibody made in CHO cells, captured by anti-human Fc
How it was run: as §1

ADI-74965 = target: T6, ADI-74965; assay: SPR Carterra, yeast anti-ID
T6 construct: pH-dependent anti-CD3 antibody made in CHO cells
How it was run: as §1

ADI-26909 = target: T7, ADI-26909; assay: SPR Carterra, yeast anti-ID
T7 construct: anti-CD3 antibody made in CHO cells, captured by anti-human Fc
How it was run: as §1

ADI-50024 = target: T8, ADI-50024; assay: SPR Carterra, yeast anti-ID
T8 construct: anti-CD3 antibody made in CHO cells, captured by anti-human Fc
How it was run: as §1

ADI-48650 = target: T9, ADI-48650; assay: SPR Carterra, yeast anti-ID
T9 construct: pH-dependent anti-CD3 antibody made in CHO cells
How it was run: as §1

ADI-26921 IgG = target: T10, ADI-26921 IgG; assay: SPR Carterra, yeast anti-ID
T10 construct: anti-CD3 IgG
How it was run: as §1

ADI-67445 = target: T11, ADI-67445; assay: SPR Carterra, yeast anti-ID
T11 construct: anti-CD3 antibody made in CHO cells, captured by anti-human Fc
How it was run: as §1

ADI-76358 = target: T12, ADI-76358; assay: SPR Carterra, yeast anti-ID
T12 construct: anti-CD3 antibody made in CHO cells, captured by anti-human Fc
How it was run: as §1

ADI-67447 = target: T13, ADI-67447; assay: SPR Carterra, yeast anti-ID
T13 construct: anti-CD3 antibody made in CHO cells, captured by anti-human Fc
How it was run: as §1

ADI-48576 = target: T14, ADI-48576; assay: SPR Carterra, yeast anti-ID
T14 construct: pH-dependent anti-CD3 antibody made in CHO cells
How it was run: as §1

ADI-74968 = target: T15, ADI-74968; assay: SPR Carterra, yeast anti-ID
T15 construct: pH-dependent anti-CD3 antibody made in CHO cells
How it was run: as §1

ADI-74967 = target: T16, ADI-74967; assay: SPR Carterra, yeast anti-ID
T16 construct: pH-dependent anti-CD3 antibody made in CHO cells
How it was run: as §1

ADI-70330 = target: T17, ADI-70330; assay: SPR Carterra, yeast anti-ID
T17 construct: anti-CD3 antibody made in CHO cells, captured by anti-human Fc
How it was run: as §1

ADI-76361 = target: T18, ADI-76361; assay: SPR Carterra, yeast anti-ID
T18 construct: anti-CD3 antibody made in CHO cells, captured by anti-human Fc
How it was run: as §1

CTL-62227 = target: T19, CTL-62227; assay: SPR Carterra, yeast anti-ID
T19 construct: also called odronextamab
How it was run: as §1

ADI-26912 = target: T20, ADI-26912; assay: SPR Carterra, yeast anti-ID
T20 construct: anti-CD3 antibody made in CHO cells, captured by anti-human Fc
How it was run: as §1

ADI-70327 = target: T21, ADI-70327; assay: SPR Carterra, yeast anti-ID
T21 construct: anti-CD3 antibody made in CHO cells, captured by anti-human Fc
How it was run: as §1

ADI-48587 = target: T22, ADI-48587; assay: SPR Carterra, yeast anti-ID
T22 construct: pH-dependent anti-CD3 antibody made in CHO cells
How it was run: as §1

ADI-67450 = target: T23, ADI-67450; assay: SPR Carterra, yeast anti-ID
T23 construct: anti-CD3 antibody made in CHO cells, captured by anti-human Fc
How it was run: as §1

ADI-26915 = target: T24, ADI-26915; assay: SPR Carterra, yeast anti-ID
T24 construct: anti-CD3 antibody made in CHO cells, captured by anti-human Fc
How it was run: as §1

CTL-62228 = target: T25, CTL-62228; assay: SPR Carterra, yeast anti-ID
T25 construct: also called glofitamab
How it was run: as §1

ADI-22523 Fab = target: T26, ADI-22523 Fab; assay: BLI; tip anti-ID IgG, solution ADI-22523 Fab
T26 construct: anti-CD3 Fab by papain digestion of the IgG
How it was run: (§2)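 Anti-ID IgG was captured on AHC biosensors, equilibrated in assay buffer for 30 min, then baselined for 60 s. KD = koff/kon came from a 1:1 binding fit.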

ADI-48592 = target: T27, ADI-48592; assay: SPR Carterra avidity, yeast anti-ID
T27 construct: pH-dependent anti-CD3 antibody made in CHO cells
How it was run: as §1

ADI-26916 IgG = target: T28, ADI-26916 IgG; assay: SPR Carterra avidity, yeast anti-ID
T28 construct: anti-CD3 IgG
How it was run: as §1

ADI-26913 IgG = target: T29, ADI-26913 IgG; assay: SPR Carterra avidity, yeast anti-ID
T29 construct: anti-CD3 IgG
How it was run: as §1

ADI-26906 IgG = target: T30, ADI-26906 IgG; assay: SPR Carterra avidity, yeast anti-ID
T30 construct: anti-CD3 IgG
How it was run: as §1

ADI-76359 = target: T31, ADI-76359; assay: SPR Carterra avidity, yeast anti-ID
T31 construct: anti-CD3 antibody made in CHO cells, captured by anti-human Fc
How it was run: as §1

ADI-76357 = target: T32, ADI-76357; assay: SPR Carterra avidity, yeast anti-ID
T32 construct: anti-CD3 antibody made in CHO cells, captured by anti-human Fc
How it was run: as §1

ADI-26943 = target: T33, ADI-26943; assay: SPR Carterra avidity, yeast anti-ID
T33 construct: anti-CD3 antibody made in CHO cells, captured by anti-human Fc
How it was run: as §1

ADI-74966 = target: T34, ADI-74966; assay: SPR Carterra avidity, yeast anti-ID
T34 construct: pH-dependent anti-CD3 antibody made in CHO cells
How it was run: as §1

ADI-26920 IgG = target: T35, ADI-26920 IgG; assay: SPR Carterra avidity, yeast anti-ID, *koff limit
T35 construct: anti-CD3 IgG
How it was run: as §1

ADI-26924 = target: T36, ADI-26924; assay: SPR Carterra avidity, yeast anti-ID, *koff limit
T36 construct: anti-CD3 antibody made in CHO cells, captured by anti-human Fc
How it was run: as §1

ADI-26919 = target: T37, ADI-26919; assay: SPR Carterra avidity, yeast anti-ID, *koff limit
T37 construct: anti-CD3 antibody made in CHO cells, captured by anti-human Fc
How it was run: as §1

ADI-22523 IgG = target: T38, ADI-22523 IgG; assay: BLI; tip anti-ID IgG, solution ADI-22523 IgG
T38 construct: anti-CD3 IgG
How it was run: as §2

T20 sequence (VH, as listed by the source, chain 1 of 2): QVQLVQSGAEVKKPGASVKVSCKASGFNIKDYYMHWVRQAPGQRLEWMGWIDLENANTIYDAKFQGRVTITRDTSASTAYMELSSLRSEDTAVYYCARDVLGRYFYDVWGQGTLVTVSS
T20 sequence (VL, as listed by the source, chain 2 of 2): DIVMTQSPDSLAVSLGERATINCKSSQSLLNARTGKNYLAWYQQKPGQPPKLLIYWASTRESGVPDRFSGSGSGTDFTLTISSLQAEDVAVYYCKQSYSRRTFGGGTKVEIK
T34 sequence (VH, as listed by the source, chain 1 of 2): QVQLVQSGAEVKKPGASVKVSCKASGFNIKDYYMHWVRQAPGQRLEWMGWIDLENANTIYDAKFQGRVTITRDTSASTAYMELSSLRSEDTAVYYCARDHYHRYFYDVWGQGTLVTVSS
T34 sequence (VL, as listed by the source, chain 2 of 2): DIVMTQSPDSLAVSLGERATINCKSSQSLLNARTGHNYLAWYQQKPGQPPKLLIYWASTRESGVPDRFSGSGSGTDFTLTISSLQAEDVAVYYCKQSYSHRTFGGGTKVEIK
T22 sequence (VL, as listed by the source, chain 2 of 2): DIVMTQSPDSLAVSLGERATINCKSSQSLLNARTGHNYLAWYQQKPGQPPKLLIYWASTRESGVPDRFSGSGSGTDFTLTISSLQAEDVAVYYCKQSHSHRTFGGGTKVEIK
T16 sequence (VL, as listed by the source, chain 2 of 2): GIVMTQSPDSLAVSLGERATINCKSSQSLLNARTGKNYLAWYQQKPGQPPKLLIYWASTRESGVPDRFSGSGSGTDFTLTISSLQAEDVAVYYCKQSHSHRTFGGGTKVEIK
T23 sequence (VH, as listed by the source limits assumed, chain 1 of 2): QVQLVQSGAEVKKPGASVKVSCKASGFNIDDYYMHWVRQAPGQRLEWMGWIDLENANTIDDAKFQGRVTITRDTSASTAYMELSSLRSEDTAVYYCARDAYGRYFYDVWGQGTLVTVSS
T7 sequence (VH, as listed by the source limits assumed, chain 1 of 2): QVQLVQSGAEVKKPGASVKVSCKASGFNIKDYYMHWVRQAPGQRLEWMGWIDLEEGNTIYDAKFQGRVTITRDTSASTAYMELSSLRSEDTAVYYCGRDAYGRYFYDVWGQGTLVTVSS
T28 sequence (VH, as listed by the source, chain 1 of 2): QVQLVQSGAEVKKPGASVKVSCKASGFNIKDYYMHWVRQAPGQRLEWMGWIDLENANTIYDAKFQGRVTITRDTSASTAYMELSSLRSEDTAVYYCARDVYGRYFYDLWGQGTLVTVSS
T29 sequence (VH, as listed by the source limits assumed, chain 1 of 2): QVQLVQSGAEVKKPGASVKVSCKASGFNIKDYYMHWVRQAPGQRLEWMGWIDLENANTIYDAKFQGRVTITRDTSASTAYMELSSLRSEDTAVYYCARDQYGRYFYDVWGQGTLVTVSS
T32 sequence (VH, as listed by the source, chain 1 of 2): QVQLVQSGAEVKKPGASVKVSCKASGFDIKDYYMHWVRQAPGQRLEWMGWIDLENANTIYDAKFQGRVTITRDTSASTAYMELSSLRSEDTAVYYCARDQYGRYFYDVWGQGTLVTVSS
T15 sequence (VH, as listed by the source, chain 1 of 2): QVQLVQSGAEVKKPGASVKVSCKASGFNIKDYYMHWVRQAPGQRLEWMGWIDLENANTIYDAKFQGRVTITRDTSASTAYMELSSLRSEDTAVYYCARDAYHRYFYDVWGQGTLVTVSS
T33 sequence (VH, as listed by the source, chain 1 of 2): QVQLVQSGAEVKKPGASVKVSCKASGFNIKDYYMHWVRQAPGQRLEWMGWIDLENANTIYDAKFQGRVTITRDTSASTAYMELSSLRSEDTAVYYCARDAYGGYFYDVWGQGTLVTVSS
T33 sequence (VL, as listed by the source, chain 2 of 2): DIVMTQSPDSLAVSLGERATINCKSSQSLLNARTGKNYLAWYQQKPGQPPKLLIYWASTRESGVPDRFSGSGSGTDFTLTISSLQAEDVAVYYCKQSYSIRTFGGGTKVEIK
T35 sequence (VH, as listed by the source limits assumed, chain 1 of 2): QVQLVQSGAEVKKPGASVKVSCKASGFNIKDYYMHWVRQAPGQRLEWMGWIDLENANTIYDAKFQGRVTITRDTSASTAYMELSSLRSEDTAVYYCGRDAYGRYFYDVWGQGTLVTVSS
T35 sequence (VL, as listed by the source limits assumed, chain 2 of 2): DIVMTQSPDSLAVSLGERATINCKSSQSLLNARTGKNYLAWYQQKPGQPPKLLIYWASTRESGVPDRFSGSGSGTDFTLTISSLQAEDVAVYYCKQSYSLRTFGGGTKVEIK
T14 sequence (VH, as listed by the source, chain 1 of 2): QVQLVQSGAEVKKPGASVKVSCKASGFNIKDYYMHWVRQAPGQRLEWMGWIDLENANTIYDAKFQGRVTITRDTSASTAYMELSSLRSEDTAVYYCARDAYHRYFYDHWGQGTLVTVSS
T14 sequence (VL, as listed by the source, chain 2 of 2): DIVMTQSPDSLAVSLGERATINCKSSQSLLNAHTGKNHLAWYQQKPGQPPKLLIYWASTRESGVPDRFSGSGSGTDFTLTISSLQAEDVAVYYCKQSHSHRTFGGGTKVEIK
T31 sequence (VH, as listed by the source, chain 1 of 2): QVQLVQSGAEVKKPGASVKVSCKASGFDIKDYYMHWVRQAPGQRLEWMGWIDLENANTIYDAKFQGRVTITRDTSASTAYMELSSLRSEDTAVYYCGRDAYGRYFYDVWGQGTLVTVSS
T9 sequence (VH, as listed by the source, chain 1 of 2): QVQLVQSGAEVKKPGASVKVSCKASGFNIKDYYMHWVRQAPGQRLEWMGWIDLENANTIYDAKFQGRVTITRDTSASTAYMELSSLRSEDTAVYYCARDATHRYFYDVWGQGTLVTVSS
T9 sequence (VL, as listed by the source, chain 2 of 2): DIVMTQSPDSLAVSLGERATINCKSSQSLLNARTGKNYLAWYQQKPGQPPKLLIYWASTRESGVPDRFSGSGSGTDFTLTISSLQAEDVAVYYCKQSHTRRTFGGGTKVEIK
T37 sequence (VH, as listed by the source limits assumed, chain 1 of 2): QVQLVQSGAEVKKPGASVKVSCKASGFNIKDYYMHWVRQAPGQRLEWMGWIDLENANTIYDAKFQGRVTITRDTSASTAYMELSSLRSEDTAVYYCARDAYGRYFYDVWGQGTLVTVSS

B1: ADI-30254 (antibody, V domains shown)
VH: EVQLLESGGGLVQPGGSLRLSCAASGFTFSSYAMSWVRQAPGKGLEWVSTISGSGGSTYYADSVKGRFTISRDNSKNTLYLQMNSLRAEDTAVYYCARLGGRRGSGSSYYYYYGMDVWGQGTTVTVSS
VL: not shown
notes: anti-ID IgG
B1: no binding (tested: up to 200 nM) (ADI-76362); no binding (tested: up to 200 nM) (CTL-62223); no binding (tested: up to 200 nM) (ADI-76360). B1: no binding (tested: up to 200 nM) (CTL-62240); no binding (tested: up to 200 nM) (ADI-70326); no binding (tested: up to 200 nM) (ADI-74965). B1: no binding (tested: up to 200 nM) (ADI-26909); no binding (tested: up to 200 nM) (ADI-50024); no binding (tested: up to 200 nM) (ADI-48650). B1: no binding (tested: up to 200 nM) (ADI-26921 IgG); no binding (tested: up to 200 nM) (ADI-67445); no binding (tested: up to 200 nM) (ADI-76358). B1: no binding (tested: up to 200 nM) (ADI-67447); no binding (tested: up to 200 nM) (ADI-48576); no binding (tested: up to 200 nM) (ADI-74968). B1: no binding (tested: up to 200 nM) (ADI-74967); no binding (tested: up to 200 nM) (ADI-70330); no binding (tested: up to 200 nM) (ADI-76361). B1: no binding (tested: up to 200 nM) (CTL-62227); no binding (tested: up to 200 nM) (ADI-26912); no binding (tested: up to 200 nM) (ADI-70327). B1: no binding (tested: up to 200 nM) (ADI-48587); no binding (tested: up to 200 nM) (ADI-67450); no binding (tested: up to 200 nM) (ADI-26915). The binding result (CTL-62228) was “no binding (tested: up to 200 nM)”, the Kd (ADI-22523 Fab) was 0.0503 µM and the binding result (ADI-48592) was “binds”. The Kd (ADI-26916 IgG) was 0.056 µM, the binding result (ADI-26913 IgG) was “binds” and the binding result (ADI-26906 IgG) was “binds”. For the same binder, the Kd (ADI-76359) was 0.027 µM, the binding result (ADI-76357) was “binds” and the Kd (ADI-26943) was 0.027 µM. The binding result (ADI-74966) was “binds”, the Kd (ADI-26920 IgG) was 0.021 µM and the Kd (ADI-26924) was 0.021 µM. The Kd (ADI-26919) was 0.033 µM and the Kd (ADI-22523 IgG) was 0.00334 µM.

— patent US20250019439A1 (Adimab, published 2025)
